{"source": "patent US9675625B2", "about": "“Medicament comprising recombinant antibody against chemokine receptor CCR4” (KYOWA HAKKO KIRIN CO., LTD., priority 2003, dated 2017)", "tested_on": "CCRF-CEM cells", "assay": "antitumor effect of KM 2760 and Methotrexate in combination, CCRF-CEM cells grafted in nude mouse", "format": "in vivo, Balb/c nude mouse", "settings": "Day 7; KM 2760 800 μg per mouse Day 0 and Day 4; MTX 15 mg/kg Day 0 to Day 4; tail vein", "protocol": "CCRF-CEM cells (human T cell leukemia cell line) were suspended in RPMI 1640 medium (Gibco BRL) at a concentration of 2×10^8 cells/mL, and 100 μL of the suspension was grafted into the ventral skin of Balb/c nude mice (CLEA Japan Inc. male). On Day 17 after the cell grafting, a diameter of a tumor was measured with calipers, and a tumor volume was calculated using formula 2 in Example 2.\nIndividuals having the tumor volume within the range of 121 to 348 mm^3 (on average 195 mm^3) were selected, and grouped such that the average tumor volume to be almost the same. Each of the following agents A to D was administered to the mice. Incidentally, the grouping day was defined as Day 0.\nB. Group of administering KM 2760 alone: 800 μg of KM2760 was administered per mouse on Day 0 and Day 4.\nC. Group of administering Methotrexate (hereinafter referred to as MTX; Methotrexate injection solution, Nippon Weisledary K.K.) alone: 15 mg/kg of MTX was administered per mouse for 5 days from Day 0 to Day 4. […]\nThe experiment was conducted with groups each consisting of five mice. […] On Day 7, the tumor volume was measured. The antitumor effect was evaluated by comparing average values of a tumor volume change (V/V0) when the tumor volume on Day 0 in each group was defined as V0."}
{"molecule": "KM 2760: anti-CCR4 human chimeric antibody KM 2760 (FERM BP-7054, WO 01/64754) (antibody, V domains shown) VH: EVQLVESGGDLMKPGGSLKISCAASGFIFSNYGMSWVRQTPDMRLEWVATISSASTYSYYPDSVKGRFTISRDNAENSLYLQMNSLRSEDTGIYYCGRHSDGNFAFGYWGRGTLVTVSA VL: DVLMTQTPLSLPVSLGDQASISCRSSRNIVHINGDTYLEWYLQRPGQSPKLLIYKVSNRFSGVPDRFSGSGSGTDFTLKISRVEAEDLGVYYCFQGSLLPWTFGGGTRLEIRR", "values": [{"measurement": "T/C (V/V0 of group divided by V/V0 of negative control group)", "value": 0.65}]}
